The source of these data is patent US20230064978A1, “CYCLIC PEPTIDE RECEPTOR LANTHIONINE SYNTHETASE C-LIKE PROTEIN (LANCL) AND USES THEREOF” (LATERAL IP PTY LTD, priority 2019, published 2023).

Bridges are numbered along the chain shown (N, C = ends). Where no end group is shown, it is not given here.

Test [1] addresses T1, human recombinant LANCL2 (Homo sapiens, UniProt Q9NS86).
T1 construct: human recombinant LANCL2 (amino acid residues 1-450); GST (N); purchased ABCAM ab163277; host or cells: wheat germ
T1 sequence (Q9NS86 1-450): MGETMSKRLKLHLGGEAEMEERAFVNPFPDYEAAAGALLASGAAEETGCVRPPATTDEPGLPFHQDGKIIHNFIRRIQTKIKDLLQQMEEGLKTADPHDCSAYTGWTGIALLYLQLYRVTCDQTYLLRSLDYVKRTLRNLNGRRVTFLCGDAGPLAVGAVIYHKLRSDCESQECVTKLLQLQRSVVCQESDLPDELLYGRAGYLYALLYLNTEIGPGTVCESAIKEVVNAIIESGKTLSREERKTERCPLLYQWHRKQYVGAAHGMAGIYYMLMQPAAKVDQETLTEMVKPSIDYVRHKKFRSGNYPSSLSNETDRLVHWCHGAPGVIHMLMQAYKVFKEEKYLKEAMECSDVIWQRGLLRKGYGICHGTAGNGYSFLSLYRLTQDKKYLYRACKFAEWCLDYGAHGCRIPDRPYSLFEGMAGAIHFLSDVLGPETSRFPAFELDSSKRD
Kind of test: In-gel fluorescence: photolabelling of recombinant LANCL2 with PAL probe, with or without excess LAT8881. The test is classed as binding. As to the method:
(§1) An in-gel fluorescence protocol was followed to determine whether the cyclic peptides bound to LANCL2 and LANCL3. Briefly:
(§2) 1. LANCL2 and LANCL3 Labelling, Assay on 96 Well Plate, Volume of the Reaction 40 μl in PBS
• 1 μg/well of human recombinant LANCL2 (amino acid residues 1-450; ABCAM catalog no. ab163277, ˜0.07 mg/ml; expressed in wheat germ and incorporating an N-terminal GST tag; UniProt Accession no: Q9NS86);
• Vehicle DMSO • ±LAT8881 (a cyclic peptide fragment of human growth hormone; SEQ ID NO:1) • SEQ ID NO:1 as competitor @ 50, 100 or 200 μM, pre-incubation 10 min, 4 μl of a stock solution 10-fold concentrated • ±LAT9991-PAL probes @ 1 μM, incubation 30 min at room temperature on a plate agitator (protected from light), 4 μl of a stock solution @10 μM
(§3) • Irradiation @ 365 nm 20 min (4° C., on a support containing ice) • Transfer 40 μl in a clean Eppendorf tube
(§4) • Reduction: DTT 10 mM, 30 min @ 56° C. • Alkylation: Iodoacétamide 30 mM, 45 min @ RT Click-iT AzideTamra of 60 μL samples
(§5) • Acetone Precipitation −20° C. ON • Dry pellet resuspended in 30 μL 1% SDS in 50 mM Tris-HCl pH 7.5 • Photolabeled LANCL1 was tagged with tetramethylrhodamine (TAMRA) azide @100 μM TAMRA azide by copper click chemistry using the Click-iT Protein Reaction Buffer Kit (ThermoFisher Scientific) for 30 minutes • Precipitation using the chloroform-methanol method, pellet was air-dried for 10 min at room temperature, resuspended in 30 μL SDS loading buffer (Bio Rad XT Sample Buffer containing 2.5% v/v 2-mercaptoethanol) and heated (60° C., 30 min)
(§6) • SDS-PAGE (4-15% Criterion™ TGX Stain-Free™ Protein Gel, Bio Rad) • Analyzed by in-gel fluorescence scanning using a ChemiDoc™ MP Imaging System (Bio Rad) with a green LED light as an excitation source and a BP600/20 nm emission filter

Test [2] has as its target T2, human recombinant LANCL3 (Homo sapiens, UniProt Q6ZV70).
T2 construct: human recombinant LANCL3 (amino acid residues 1-420); 10xHis (N); Myc (C); purchased ABCAM ab163277; host or cells: E. coli
Kind of test: In-gel fluorescence: photolabelling of recombinant LANCL3 with PAL probe, with or without excess LAT8881. The test is classed as binding. The method, then:
as §1, §2
• […] of human recombinant LANCL3 (amino acid residues 1-420; ABCAM catalog no. ab163277, ˜0.07 mg/ml; expressed in E. Coli and incorporating an N-terminal 10×His tag and a C-terminal Mvc tag; UniProt Accession no: Q6ZV70);
• Vehicle DMSO • ±LAT8881 (a cyclic peptide fragment of human growth hormone; SEQ ID NO:1) • SEQ ID NO:1 as competitor @ 50, 100 or 200 μM, pre-incubation 10 min, […], incubation 30 min at room temperature on a plate agitator (protected from light), 4 μl of a stock solution @10 μM
as §3, §4, §5, §6

Where [3] appears, read: in-gel fluorescence after UV cross-linking.
Where [4] appears, read: probe LAT9991-PAL, excess LAT8881.

T2 sequence (Q6ZV70 whole entry, the tested form may be a part): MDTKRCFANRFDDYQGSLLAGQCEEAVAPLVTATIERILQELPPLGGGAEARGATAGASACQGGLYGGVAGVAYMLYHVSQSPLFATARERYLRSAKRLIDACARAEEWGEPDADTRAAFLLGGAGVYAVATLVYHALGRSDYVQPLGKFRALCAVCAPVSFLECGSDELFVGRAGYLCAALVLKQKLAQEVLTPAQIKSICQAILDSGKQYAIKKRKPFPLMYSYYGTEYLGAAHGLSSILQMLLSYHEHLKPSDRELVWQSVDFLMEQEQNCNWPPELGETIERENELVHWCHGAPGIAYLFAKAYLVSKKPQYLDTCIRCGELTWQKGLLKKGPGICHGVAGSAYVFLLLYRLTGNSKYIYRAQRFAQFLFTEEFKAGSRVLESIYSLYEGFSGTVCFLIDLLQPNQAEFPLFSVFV

For the substance “LAT9991-PAL: cyclic peptide of SEQ ID NO:12 (LAT9991) conjugated to the PAL (Photo-Activated Labelling) grouping (CRSVEGSCG; disulfide 1-8 (inferred); also: PAL group on N-terminal Cys-Arg part)”, the “Binding of PAL probe to recombinant LANCL2” value in test [1] (setting [3]) was “binds”. Moreover, the “Binding of PAL probe to recombinant LANCL3” value in test [2] (setting [3]) is “binds”.
Take “YLRIVQCRSVEGSCGF [LAT8881, a cyclic peptide fragment of human growth hormone]”: the “Inhibition of LAT7771-PAL binding to recombinant LANCL2 by excess competitor” value in test [1] (probe LAT7771-PAL (as in FIG. 10 legend), excess LAT8881) is “inhibited”. Also, the “Inhibition of LAT9991-PAL binding to LANCL2 by excess competitor” value in test [1] (setting [4]) is listed as “inhibited”. Further, the “Inhibition of LAT9991-PAL binding to LANCL3 by excess competitor” value in test [2] (setting [4]) was “inhibited”. The “Inhibition of LAT9993-PAL binding to recombinant LANCL3 by excess competitor” value in test [2] (probe LAT9993-PAL (as in FIG. 11 legend), excess LAT8881) is recorded as “inhibited”.
